Reference: patent US20160009799A1 (ORDER MADE MEDICAL RESEARCH, published 2016)
One block for each binder: values may come before it.

Tests used:
[1] = biological target: T1, SLC6A6 (solute carrier family 6 (neurotransmitter transporter, taurine), member 6) on human colorectal cancer … (human, UniProt P31641 1-620); experiment: flow cytometry on 10 colorectal cancer cell lines, antibody at 1 ug/mL
T1 construct: Endogenous protein on ten colorectal cancer cell lines (Caco-2, COLO201, DLD-1, HCT15, HCT116, HT-29, LoVo, SW480, SW620, WiDr); also called native SLC6A6
T1 sequence: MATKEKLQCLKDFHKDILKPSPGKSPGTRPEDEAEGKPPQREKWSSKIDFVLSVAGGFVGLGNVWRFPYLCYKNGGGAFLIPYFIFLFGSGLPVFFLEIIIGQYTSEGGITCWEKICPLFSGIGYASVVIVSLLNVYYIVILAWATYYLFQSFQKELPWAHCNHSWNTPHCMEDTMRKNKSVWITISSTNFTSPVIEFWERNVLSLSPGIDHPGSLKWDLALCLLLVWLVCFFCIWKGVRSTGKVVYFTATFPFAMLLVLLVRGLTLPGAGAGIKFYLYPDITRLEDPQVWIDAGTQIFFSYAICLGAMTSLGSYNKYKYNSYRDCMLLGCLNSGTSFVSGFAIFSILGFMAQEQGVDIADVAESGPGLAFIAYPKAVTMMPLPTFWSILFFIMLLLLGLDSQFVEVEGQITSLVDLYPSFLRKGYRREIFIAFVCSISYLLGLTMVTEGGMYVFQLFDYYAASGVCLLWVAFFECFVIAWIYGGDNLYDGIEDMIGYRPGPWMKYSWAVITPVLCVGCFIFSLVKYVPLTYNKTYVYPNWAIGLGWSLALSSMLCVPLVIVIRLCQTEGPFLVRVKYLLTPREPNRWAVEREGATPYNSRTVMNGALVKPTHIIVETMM
Procedure: Ten lines of colorectal cancer cells were each cultured to reach 90% confluency. The cells of each line were washed twice with PBS, detached with a scraper and collected into a 1.5 mL tube. 4B9b and 5H12d antibodies were each added to give a final concentration of 1 μg/mL, followed by reaction for 60 minutes. After washing twice with PBS+2% FBS, AlexaFluor 488-labeled goat anti-mouse IgG (Invitrogen) was added as a 1/1000 dilution in PBS+2% FBS, followed by reaction for 30 minutes. After washing twice with PBS+2% PBS(FBS?), the cells were analyzed by Guava Flow Cytometry (Millipore).

[2] = biological target: T2, partial protein of the extracellular region of SLC6A6 (amino acid residues 143 to 216), His tag at the … (human, UniProt P31641 143-216); experiment: ELISA on plate-bound recombinant SLC6A6 partial protein, antibody 0 to 40 ug/mL
T2 construct: also called SLC6A6 partial protein for screening; recombinant protein obtained in (6); not shown: His tag added to the C-terminal end (pET32 vector)
T2 sequence: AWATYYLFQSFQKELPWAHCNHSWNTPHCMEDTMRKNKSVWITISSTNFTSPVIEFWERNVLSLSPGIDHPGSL
Procedure: The recombinant protein obtained in (6) above (10 μg/ml) was dispensed in 100 μL volumes into MaxiSorp 96-well plates (Nunc) and adsorbed onto the plates at room temperature for 1 hour. After adsorption, each well was washed with TBS-T (25 mM Tris, 150 mM NaCl, 0.05% (v/v) Tween 20, pH 7.4) and charged with skimmed milk (GIBCO), which had been diluted at a concentration of 5% with TBS-T, to conduct blocking for 30 minutes at room temperature. After each well was washed three times with 200 μL TBS-T, […] ELISA plates in a volume of 100 μL per well, followed by reaction at room temperature for 1 hour. Each well was washed three times with […] TBS-T.
For use as a secondary antibody, anti-mouse IgG polyclonal antibody-HRP label (BETHYL) was diluted 5,000-fold with TBS-T. The above antibody dilution was added in a volume of 100 μL per well and reacted at room temperature for 30 minutes. Each well was washed three times with 200 μL TBS-T. Orthophenylenediamine (Sigma) was diluted with 50 mM carbonate-citrate buffer (pH 5.0) to give a final concentration of 0.5 mg/mL and mixed with 1/10,000 volumes of 35% (w/w) aqueous hydrogen peroxide (WAKO). […] The absorbance at 492 nm was measured with a plate reader (SpectraMax Plus 384, Molecular Devices) to analyze antibody titers, which were then used for selection of mice to be used for cell fusion. […]

- binding result [1]: binds
B1: 4B9b antibody (produced by Mouse-Mouse hybridoma 4B9b, FERM BP-11413) (antibody, mouse IgM, V domains shown)
VH: QVKLQQSGAELMKPGASVKISCKATGYTFSRYWIEWVKQRPGHGLEWIGEILPGSGSTNYNEKFKGKATFTADTSSNTAYMQLSSLTSEDSAVYYCARGGFLGHYGFAYWGQGTLVTVSA
VL: DIQLTQSPTTMAASPGEKITITCSASSSISSNYLHWYQQKPGFSPKLLIYRTSNLASGVPARFSGSGSGTSYSLTIGTMEAEDVATYYCQQGSSIPYTFGGGTKLEIK
notes: also called anti-SLC6A6 antibody, 4B9b

- binding result [2]: binds
B2: mouse IgG1-converted anti-SLC6A6 antibody (4B9b) (antibody, V domains shown)
VH: B1 VH
VL: DIQLTQSPTTMAASPGEKITITCSASSSISSNYLHWYQQKPGFSPKLLIYRTSNLASGVPARFSGSGSGTSYSLTIGTMEAEDVATYYCQQGSSIPYTFGGGTKLEIKR
notes: Expressed in Cos7 cells and purified on Protein G; also called mouse IgG-converted antibody; mouse IgG-chimerized antibody
